Source: publication PMC10711807 (The Journal of Cell Biology, 2023)

Target: TOLLIP, recombinant from bacteria, biotinylated (human, UniProt Q9H0E2 1-274, biotin (biotinylated TOLLIP; site not told))
Assay: BLI

B1: GST-BLK (B lymphoid tyrosine kinase), recombinant from bacteria (enzyme)
chain: not shown
modifications: autophosphorylated as purified (Fig. S5 C); sites not told for this sample
Work on B1 yielded a Kd of roughly 8.39 nM.
